According to publication PMC4897640, “Functional diversity of family 3 β-glucosidases from thermophilic cellulolytic fungus Humicola insolens Y1” (Scientific Reports, 2016):

Tests used:
HiBgl3B = target: T1, HiBgl3B (Mycothermus thermophilus, UniProt A0A191KCR2); test: pNPG hydrolysis, Dixon plot; type: biochemical; conditions: read-out: Ki (mM) / pNPG; substrate pNPG 0.75 and 1 mM, glucose 5-50 mM; product inhibition, mode not stated
T1 construct: GenBank printed as KT203372, same as Hibgl3C, so probably a misprint of KT203371

HiBgl3C = target: T2, HiBgl3C (Mycothermus thermophilus, UniProt A0A191KCR0); test: pNPG hydrolysis, Dixon plot; type: biochemical; conditions: read-out: Ki (mM) / pNPG; substrate pNPG 0.75 and 1 mM, glucose 5-50 mM; product inhibition, mode not stated
T2 construct: the same GenBank number is also printed for Hibgl3B
T2 sequence (A0A191KCR0 18-733): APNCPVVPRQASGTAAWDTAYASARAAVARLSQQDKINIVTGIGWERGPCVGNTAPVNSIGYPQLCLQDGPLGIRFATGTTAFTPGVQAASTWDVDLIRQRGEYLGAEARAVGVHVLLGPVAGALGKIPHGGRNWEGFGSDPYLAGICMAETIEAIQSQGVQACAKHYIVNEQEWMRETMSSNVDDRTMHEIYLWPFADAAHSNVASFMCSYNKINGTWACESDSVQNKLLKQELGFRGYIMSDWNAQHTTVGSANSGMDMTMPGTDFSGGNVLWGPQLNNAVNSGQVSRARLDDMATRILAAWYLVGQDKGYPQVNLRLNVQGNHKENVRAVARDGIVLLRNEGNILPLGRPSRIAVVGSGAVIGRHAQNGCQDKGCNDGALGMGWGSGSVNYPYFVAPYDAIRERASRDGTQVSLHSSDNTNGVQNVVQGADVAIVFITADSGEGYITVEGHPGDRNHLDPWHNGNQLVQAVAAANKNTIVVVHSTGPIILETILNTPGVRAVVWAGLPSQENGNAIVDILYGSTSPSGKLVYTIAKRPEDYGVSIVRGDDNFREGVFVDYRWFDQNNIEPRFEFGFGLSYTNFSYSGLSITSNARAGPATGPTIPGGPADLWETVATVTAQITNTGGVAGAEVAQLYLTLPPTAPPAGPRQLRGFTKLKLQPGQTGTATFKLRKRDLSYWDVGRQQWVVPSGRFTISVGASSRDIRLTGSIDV

HiBgl3A = HiBgl3A (Mycothermus thermophilus, UniProt A0A191KCR1); test: pNPG hydrolysis, Dixon plot; type: biochemical; conditions: read-out: Ki (mM) / pNPG; substrate pNPG 0.75 and 1 mM, glucose 5-50 mM; product inhibition, mode not stated
Sequence of HiBgl3A (A0A191KCR1 entry or part of it): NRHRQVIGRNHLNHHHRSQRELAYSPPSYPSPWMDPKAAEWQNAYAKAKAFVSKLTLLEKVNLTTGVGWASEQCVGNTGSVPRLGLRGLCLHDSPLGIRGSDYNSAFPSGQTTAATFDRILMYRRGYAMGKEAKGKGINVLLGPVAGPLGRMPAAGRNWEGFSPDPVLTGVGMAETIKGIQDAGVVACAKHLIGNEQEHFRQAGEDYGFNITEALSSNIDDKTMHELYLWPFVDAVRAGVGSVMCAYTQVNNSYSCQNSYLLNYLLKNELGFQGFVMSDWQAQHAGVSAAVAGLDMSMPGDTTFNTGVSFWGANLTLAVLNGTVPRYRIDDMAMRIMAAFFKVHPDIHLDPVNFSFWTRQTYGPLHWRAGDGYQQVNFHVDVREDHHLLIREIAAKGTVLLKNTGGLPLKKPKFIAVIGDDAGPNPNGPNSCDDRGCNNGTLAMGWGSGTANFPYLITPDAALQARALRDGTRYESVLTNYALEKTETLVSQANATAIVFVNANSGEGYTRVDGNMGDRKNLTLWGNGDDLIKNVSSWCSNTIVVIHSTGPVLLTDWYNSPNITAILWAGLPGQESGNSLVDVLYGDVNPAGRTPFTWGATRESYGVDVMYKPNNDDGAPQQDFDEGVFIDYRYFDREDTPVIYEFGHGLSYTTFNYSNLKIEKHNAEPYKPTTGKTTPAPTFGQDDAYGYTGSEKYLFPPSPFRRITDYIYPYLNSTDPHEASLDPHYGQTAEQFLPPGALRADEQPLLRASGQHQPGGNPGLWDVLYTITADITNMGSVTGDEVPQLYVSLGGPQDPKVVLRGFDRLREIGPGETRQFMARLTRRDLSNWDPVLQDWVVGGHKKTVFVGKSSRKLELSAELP

purified protein = substrate: O=[N+]([O-])c1ccc(O[C@@H]2O[C@H](CO)[C@@H](O)[C@H](O)[C@H]2O)cc1; test: purified protein; conditions: 100 mM Na2HPO4-citric acid
[1] = optimal conditions (pH 6.0, 50 °C), pH 6.0, 50.0 °C

## OC[C@H]1OC(O)[C@H](O)[C@@H](O)[C@@H]1O (some centres unmarked) [glucose]
HiBgl3B
  Ki: 55.2 mM
HiBgl3C
  Ki: 37.1 mM
HiBgl3A
  Ki: 25 mM

B1: HiBgl3B (Mycothermus thermophilus) (protein)
chain: RVVEPRDPVPQGYHAASYYPAPHGGWVSSWREAYEKAYALVSQMTLAEKVNITSGVGIYMGPCVGNTGSVDRLGFPQLCLQDSALGVASADNVTAFPAGITTGATWDKQLMYARGVAIGKEFRGKGANIHLGPSVGPLGRKPLGGRNWEGFGSDPVLQGKAAALHIRGVQEQGIIATIKHLVGNEQEMYRMYHIFQEGYSANIDDRTLHELYLWPFAEAVRAGVGAAMTAYNAVNGSACSQNSYLINGILKDELGFQGLVMSDWLSHISGVGSALAGLDLNMPGDTNIPLFGNSLWQYELTRAVLNGSVPVDRLNDMATRVVATWYKFGQDKNHPRPNFSSNTRSRDGPLYPGALFSPSGQVNWFVNVQEDHYLVARQVAQDAITLLKNNDSLLPLDAGDLTGGKLSVFGTDAQVNPDGPNSCLARACNKGTLGMGWGSGIADYPYMDDPIGAIRKRVPDVKFYNTDSFPWFFGTPENDEVAMVFISSDSGENTLTVEGNHGDRDSAKLRAWHDGDKLVQKVAEKFKNVIVVVHTVGPLDLEPWIELPSVKAVLFAHLPGQEAGESLTNVLFGDVSPSGHLPYSITRKASDLPDSIANLKGFTWGQVQDTYSEGLYIDYRYLQKHSIQPRFAFGHGLSYTNFSFTNATIRAITTPLSVTPPAPPATRPASVVAKYSTDIPPASEAYEPAGFSRIWRYLYPWLSKSDADAAHAIGTSKSKTYPYPPGYSTVQRASFPPAGGGEGGNPALWDVAYEVTVRVTNTGKRPGKASAQLYLQFPEGIEYDTPVLQLRDFEKTKELQPGESQELKLTLTRKDVSVWDVRRQNWVVPTAIDDKKGFTAWVGEASDKLKVACYTGEGRCVEGAKQPV
Purified protein; [1]
  Km: 1510 µM
  Vmax: 25.5 µmol/min/mg
  kcat: 40.4 s⁻¹
  kcat/Km: 26800 M⁻¹ s⁻¹

B2: HiBgl3B (Mycothermus thermophilus; I81W) (protein)
chain: RVVEPRDPVPQGYHAASYYPAPHGGWVSSWREAYEKAYALVSQMTLAEKVNITSGVGWYMGPCVGNTGSVDRLGFPQLCLQDSALGVASADNVTAFPAGITTGATWDKQLMYARGVAIGKEFRGKGANIHLGPSVGPLGRKPLGGRNWEGFGSDPVLQGKAAALHIRGVQEQGIIATIKHLVGNEQEMYRMYHIFQEGYSANIDDRTLHELYLWPFAEAVRAGVGAAMTAYNAVNGSACSQNSYLINGILKDELGFQGLVMSDWLSHISGVGSALAGLDLNMPGDTNIPLFGNSLWQYELTRAVLNGSVPVDRLNDMATRVVATWYKFGQDKNHPRPNFSSNTRSRDGPLYPGALFSPSGQVNWFVNVQEDHYLVARQVAQDAITLLKNNDSLLPLDAGDLTGGKLSVFGTDAQVNPDGPNSCLARACNKGTLGMGWGSGIADYPYMDDPIGAIRKRVPDVKFYNTDSFPWFFGTPENDEVAMVFISSDSGENTLTVEGNHGDRDSAKLRAWHDGDKLVQKVAEKFKNVIVVVHTVGPLDLEPWIELPSVKAVLFAHLPGQEAGESLTNVLFGDVSPSGHLPYSITRKASDLPDSIANLKGFTWGQVQDTYSEGLYIDYRYLQKHSIQPRFAFGHGLSYTNFSFTNATIRAITTPLSVTPPAPPATRPASVVAKYSTDIPPASEAYEPAGFSRIWRYLYPWLSKSDADAAHAIGTSKSKTYPYPPGYSTVQRASFPPAGGGEGGNPALWDVAYEVTVRVTNTGKRPGKASAQLYLQFPEGIEYDTPVLQLRDFEKTKELQPGESQELKLTLTRKDVSVWDVRRQNWVVPTAIDDKKGFTAWVGEASDKLKVACYTGEGRCVEGAKQPV
Purified protein; optimal conditions
  Km: 1990 µM
  Vmax: 2.03 µmol/min/mg
  kcat: 3.21 s⁻¹
  kcat/Km: 1610 M⁻¹ s⁻¹
